The data set deals with the molecule itself. The experiment in a line: SEC.

One protein from article PMC6122994 (The Journal of Cell Biology, 2018) can be followed below.

B1: MBP-Opi1 (full-length) (natural protein, S. cerevisiae, UniProt P21957 1-404, looked up)
chain: MSENQRLGLSEEEVEAAEVLGVLKQSCRQKSQPSEDVSQADKMPASESSTTPLNILDRVSNKIISNVVTFYDEINTNKRPLKSIGRLLDDDDDEHDDYDYNDDEFFTNKRQKLSRAIAKGKDNLKEYKLNMSIESKKRLVTCLHLLKLANKQLSDKISCLQDLVEKEQVHPLHKQDGNARTTTGAGEDETSSDEDDDDEEFFDASEQVNASEQSIVVKMEVVGTVKKVYSLISKFTANSLPEPARSQVRESLLNLPTNWFDSVHSTSLPHHASFHYANCEEQKVEQQQQQQQQQQQQQLLQQQLLQQQQQKRNKDGDDSASPSSSVTANGKVLILAKESLEMVRNVMGVVDSTLGKAEEWVKQKQEVKEMIRERFLQQQQQYRQQQQKDGNYVKPSQDNVDSKD
As for B1, the binding result was “binds”.
